Data taken from publication PMC3396432.

Molecular target: Cav1(62-178) P132L (UniProt Q03135)
Test: AUC

Kd: < 15 nM | stoichiometry N: 2
Substance: Cav1(62-178) P132L (from UniProt Q03135 62-178) (domain or fragment)
